Reference: article PMC6325770

Target: enhanced green fluorescent protein-labelled G-protein-coupled receptor kinase-interacting protein 1 (GIT1) (UniProt Q9Y2X7)
Test: MST; enhanced green fluorescent protein-labelled GIT1 in human embryonic kidney 293 cell lysate at constant 20 nmol/L, serial dilution of purified CLIC4; Monolith NT.115

UniProt Q9Y2X7, sequence (Q9Y2X7 whole entry): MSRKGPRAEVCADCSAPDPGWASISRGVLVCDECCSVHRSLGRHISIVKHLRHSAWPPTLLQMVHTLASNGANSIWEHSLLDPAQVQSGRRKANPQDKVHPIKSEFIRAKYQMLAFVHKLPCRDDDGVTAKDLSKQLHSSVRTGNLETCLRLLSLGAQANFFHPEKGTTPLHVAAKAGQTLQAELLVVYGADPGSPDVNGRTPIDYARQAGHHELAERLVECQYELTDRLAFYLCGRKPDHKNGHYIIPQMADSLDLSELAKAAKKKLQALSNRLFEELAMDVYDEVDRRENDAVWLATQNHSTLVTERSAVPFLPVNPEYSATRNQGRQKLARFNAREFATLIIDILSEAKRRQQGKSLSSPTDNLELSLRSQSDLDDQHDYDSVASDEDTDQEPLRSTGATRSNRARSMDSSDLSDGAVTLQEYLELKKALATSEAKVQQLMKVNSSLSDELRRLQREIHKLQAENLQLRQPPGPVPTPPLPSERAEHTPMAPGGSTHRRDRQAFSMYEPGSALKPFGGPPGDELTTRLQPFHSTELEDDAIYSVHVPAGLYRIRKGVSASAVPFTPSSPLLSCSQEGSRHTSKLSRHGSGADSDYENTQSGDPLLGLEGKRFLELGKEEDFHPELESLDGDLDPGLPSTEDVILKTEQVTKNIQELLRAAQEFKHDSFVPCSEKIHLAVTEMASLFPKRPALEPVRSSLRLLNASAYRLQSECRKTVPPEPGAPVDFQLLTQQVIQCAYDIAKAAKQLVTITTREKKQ

Kd: 1800 nM
Substance: purified CLIC4 (ab104744; Abcam) (from UniProt Q9Y696 1-253) (natural protein)
